Reference: patent JP2011512120A (dated 2011)

Experiments:
[1] = target: 酵母由来組換えhGM−CSF(Leukine Berlex) (human); assay: SPR (Biacore), antibody captured through protein G on the chip, rhGM-CSF injected
[2] = target: 大腸菌由来組換えhGM−CSF(Peprotech) (human); assay: as above

B1: EV1007 (antibody, V domains shown)
VH: QVHLVQSGSELKKPGASVKVSCKASGYSFSRYGIKWVRQAPGQGLEWMGWINTRSGVPAYAQGFTGRFVFSLDTSVDTAFLEISSLKTEDTGIYYCATRPPRFYDKTEYWEDGFDVWGRGTLVTVSS
VL: QSVLTQPPSASGTPGQSVNISCSGSSSNIGNSYVYWYQQLPGTAPKLLIYRNNRRPSGVPDRFSGSKSDTSASLAISGLRSEDEADYYCATWDDSLSGRLFGGGTKLTVL
- Kd [1]: 1.2 nM
- Kd [2]: 0.93 nM

B2: EV1018 (antibody, V domains shown)
VH: QVQLVESGGGMVQPGMPLRLSCVASGFTFSSYGMHWVRQAPGKGLEWVALTYHHGNRKFYADSVRGRFTISRDNSNNTLYLQMTSLRAEDTAVYFCARESMGAINDNWGQGTLVIVSS
VL: QSALTQETSVSGTVGQKVTLSCIGNNNNIGSHAVGWYQQISRGAPKMVLFGRSPPSGVPDRFSGSKSGTTASLIISGLQPEDEADYYCSTWDSSLSAVVFGGGTKLTVLR
- Kd [1]: 0.23 nM
- Kd [2]: 0.15 nM

B3: EV1019 (antibody, V domains shown)
VH: QAQLVESGGGVVKPGGSLRLSCISSKFTFSSHAMHWVRQAPGKGLEWVAVIWHDGSKKYYADSVKGRFSVSRDNSKNTLFLQMDSLRAEDTAVYFCGKEWVGGTCDSWGQGTLVIVSS
VL: QPALTQEASVSGTVGQTVTLLCSGNSSNIGSYAVGWYQQISRGAPKIVVFGKSPASGIPDRFSGSKSGTTASLLVSGLQPEDEADYYCSTWDSRLSAVLFGGGTKLTVLR
- Kd [1]: 0.36 nM
- Kd [2]: 0.15 nM

B4: EV1003 (antibody, V domains shown)
VH: LVQLVQSEAEVKKPGASVRISCRTSGYIFPTFALHWVRQAPGQSLEWVGSINTASGKTKFSTKFQDRLTLSSNTSATTVYMDLSGLTLDDTALYYCARDRFQNIMATILDVWGQGTLVTVSS
VL: DIVLTQSPGTLSLSPGERVTVSCRASHRVSSNYLAWYQQRPGQSPRLLIFGASNRATGVPDRFSGSGSGTDFALTISRLEPDDFAVYYCQQYASSPVTFGGGTKLEIK
- Kd [1]: 0.23 nM
- Kd [2]: 0.095 nM
